# In paper PMC3553496:
# Assays:
# Test in all cases: peptide or protein array
# [1] = target: Myosin-14 peptide (18-mer) (human)
# [2] = target: Leucine-rich repeat flightless-interacting protein 2 peptide (18-mer) (human)
# [3] = target: LIM homology domain– and calponin homology domain–containing protein 1 peptide (18-mer) (human)
# [4] = target: LIM domain only protein 7 peptide (18-mer) (human)
# [5] = target: Drebrin peptide (18-mer) (human)
# [6] = target: FH1/FH2 domain–containing protein 3 peptide (18-mer) (human)
substance,measurement,setting,value
GST-tagged ARHGAP10L SH3 domain (domain or fragment),relative binding strength (% of the strongest interaction of this SH3 domain),[1],100%
same,relative binding strength (% of the strongest interaction of this SH3 domain),[2],65%
same,relative binding strength (% of the strongest interaction of this SH3 domain),[3],11%
same,relative binding strength (% of the strongest interaction of this SH3 domain),[4],12%
same,relative binding strength (% of the strongest interaction of this SH3 domain),[5],68%
same,relative binding strength (% of the strongest interaction of this SH3 domain),[6],53%
